Laboratory results from patent US20250388683A1 (VETOQUINOL, published 2025).
Where two headings read alike, the source gives them in different places.

Assays:
Assay in all cases: cell-based or functional assay
[1] = molecular target: T1, canine IL-31RA expressed on HEK-Blue STAT3 canine IL-31R reporter cells (with canine OSMR) (canine)
[2] = molecular target: T1, canine IL-31RA expressed on HEK-Blue …; remark: listed apart in the source
[3] = molecular target: T1, canine IL-31RA expressed on HEK-Blue …; remark: listed apart in the source
[4] = molecular target: T1, canine IL-31RA expressed on HEK-Blue …; remark: listed apart in the source
[5] = molecular target: T1, canine IL-31RA expressed on HEK-Blue …; remark: listed apart in the source
[6] = molecular target: T1, canine IL-31RA expressed on HEK-Blue …; remark: listed apart in the source
[7] = molecular target: T1, canine IL-31RA expressed on HEK-Blue …; remark: listed apart in the source
[8] = molecular target: T1, canine IL-31RA expressed on HEK-Blue …; remark: listed apart in the source

Binder	Mean IC50 (nM) (n = 3), HEK-Blue cell-based SEAP assay [1]	further results
8D3-VH-H/8D3-VL-Ev2 caninized antibody (antibody, V domains shown) VH: EVTLQESGPGLVKPSQTLSLTCVASGFSIKDSFIHWLRQRPGRGLEWIGRIDPAQGATEYDANFQGRISITADTAKNQASLQLSSMTTEDTAVYYCARYYYGASHFDAWGQGTLVTVSS VL: RIVMTQSPGSLAGSVGESVSINCKSSQSVTNDVTWYQQKPGEAPKVLIHYASQRYSGVPARFSGSGYGTDFTLTINNLQAEDVGDYFCQQDYASPFTFGQGTKLEIK	0.59	
8D3-VH-L/8D3-VL-Ev2 caninized antibody (antibody, V domains shown) VH: EVTLQESGPGLVKPSQTLSLTCVASGFSIKSSFIHWLRQRPGRGLEWIGRIDPAFGATEYNPAFQGRFSITADTAKNQASLQLSSMTTEDSAVYYCARYHYAASHFDAWGQGTLVTVSS VL: RIVMTQSPGSLAGSVGESVSINCKSSQSVTNDVTWYQQKPGEAPKVLIHYASQRYSGVPARFSGSGYGTDFTLTINNLQAEDVGDYFCQQDYASPFTFGQGTKLEIK	0.41	
8D3-VH-L/8D3-VL-G caninized antibody (antibody, V domains shown) VH: EVTLQESGPGLVKPSQTLSLTCVASGFSIKSSFIHWLRQRPGRGLEWIGRIDPAFGATEYNPAFQGRFSITADTAKNQASLQLSSMTTEDSAVYYCARYHYAASHFDAWGQGTLVTVSS VL: RIVMTQSPGSLAGSVGESVSINCKSSQSVTNDLTWYQQKPGEAPKVLIHYASQRYPGVPARFSGSGYGTDFTLTINNLQAEDVGDYFCQQDYASPFTFGQGTKLEIK	0.44	
8D3-VH-Lv2/8D3-VL-E caninized antibody (antibody, V domains shown) VH: EVTLQESGPGLVKPSQTLSLTCVASGFSIKSSFIHWLRQRPGRGLEWIGRIDPLQGATEYNPVFQGRLSITADTAKNQVSLQLSSMTTEDTAVYYCARYHYAQSHFDAWGQGTLVTVSS VL: RIVMTQSPGSLAVSVGESVSINCKSSQSVTNDVTWYQWKPGEAPKVLITYASIRYSGVPARFSGSGYGTDFTLTINNLQAEDVGDYFCQQDYASPFTFGQGTKLEIK	0.49	
8D3-VH-Lv2/8D3-VL-Ev2 caninized antibody (antibody, V domains shown) VH: EVTLQESGPGLVKPSQTLSLTCVASGFSIKSSFIHWLRQRPGRGLEWIGRIDPLQGATEYNPVFQGRLSITADTAKNQVSLQLSSMTTEDTAVYYCARYHYAQSHFDAWGQGTLVTVSS VL: RIVMTQSPGSLAGSVGESVSINCKSSQSVTNDVTWYQQKPGEAPKVLIHYASQRYSGVPARFSGSGYGTDFTLTINNLQAEDVGDYFCQQDYASPFTFGQGTKLEIK	0.38	
8D3-VH-Lv2/8D3-VL-G caninized antibody (antibody, V domains shown) VH: EVTLQESGPGLVKPSQTLSLTCVASGFSIKSSFIHWLRQRPGRGLEWIGRIDPLQGATEYNPVFQGRLSITADTAKNQVSLQLSSMTTEDTAVYYCARYHYAQSHFDAWGQGTLVTVSS VL: RIVMTQSPGSLAGSVGESVSINCKSSQSVTNDLTWYQQKPGEAPKVLIHYASQRYPGVPARFSGSGYGTDFTLTINNLQAEDVGDYFCQQDYASPFTFGQGTKLEIK	0.41	
8D3-VH-Lv2/8D3-VL-H caninized antibody (antibody, V domains shown) VH: EVTLQESGPGLVKPSQTLSLTCVASGFSIKSSFIHWLRQRPGRGLEWIGRIDPLQGATEYNPVFQGRLSITADTAKNQVSLQLSSMTTEDTAVYYCARYHYAQSHFDAWGQGTLVTVSS VL: RIVMTQSPGSLAGSVGESVSINCKSSQSVTNDLTWYQQKPGEAPKVLITYASQRYTGVPARFSGSGYGTDFTLTINNLQAEDVGDYFCQQDYASPFTFGQGTKLEIK	0.54	
8D3-VH-N/8D3-VL-E caninized antibody (antibody, V domains shown) VH: EVTLQESGPGLVKPSQTLSLTCVASGFSIKSSFIHWLRQRPGRGLEWIGYIDPLQGGTEYNPVFQGRISITADTAKNQVSLQLSSMTTEDTAVYYCARYYYAQSHFDAWGQGTLVTVSS VL: RIVMTQSPGSLAVSVGESVSINCKSSQSVTNDVTWYQWKPGEAPKVLITYASIRYSGVPARFSGSGYGTDFTLTINNLQAEDVGDYFCQQDYASPFTFGQGTKLEIK	0.44	
8D3-VH-N/8D3-VL-Ev2 caninized antibody (antibody, V domains shown) VH: EVTLQESGPGLVKPSQTLSLTCVASGFSIKSSFIHWLRQRPGRGLEWIGYIDPLQGGTEYNPVFQGRISITADTAKNQVSLQLSSMTTEDTAVYYCARYYYAQSHFDAWGQGTLVTVSS VL: RIVMTQSPGSLAGSVGESVSINCKSSQSVTNDVTWYQQKPGEAPKVLIHYASQRYSGVPARFSGSGYGTDFTLTINNLQAEDVGDYFCQQDYASPFTFGQGTKLEIK	0.54	
8D3-VH-518/8D3-VL-A caninized antibody (antibody, V domains shown) VH: VTLQESGPGLVKPSQTLSLTCVASGFSIKDSFIHWLRQRPGRGLEWIGYIDPLQGNTEYDPVFQGRLSITADTAKNQVSLQLSSMTTEDTAVYYCARYYYARSHFDAWGQGTLVTVSS VL: RIVMTQSPGSLAGSAGESVSINCKASQSVTNDVTWYQQKPGERPKVLIHYASNRYTGVPARFSGSGSGTDFTFTINNLQAEDVGDYFCQQDYSSPFTFGQGTKLEIK	0.54	
8D3-VH-518/8D3-VL-Ev2 caninized antibody (antibody, V domains shown) VH: VTLQESGPGLVKPSQTLSLTCVASGFSIKDSFIHWLRQRPGRGLEWIGYIDPLQGNTEYDPVFQGRLSITADTAKNQVSLQLSSMTTEDTAVYYCARYYYARSHFDAWGQGTLVTVSS VL: RIVMTQSPGSLAGSVGESVSINCKSSQSVTNDVTWYQQKPGEAPKVLIHYASQRYSGVPARFSGSGYGTDFTLTINNLQAEDVGDYFCQQDYASPFTFGQGTKLEIK	0.57	
8D3-VH-518H/8D3-VL-A caninized antibody (antibody, V domains shown) VH: EVTLQESGPGLVKPSQTLSLTCVASGFSIKSSFIHWLRQRPGRGLEWIGYIDPLQGGTEYNPVFQGRLSITADTAKNQVSLQLSSMTTEDTAVYYCARYHYATSHFDAWGQGTLVTVSS VL: RIVMTQSPGSLAGSAGESVSINCKASQSVTNDVTWYQQKPGERPKVLIHYASNRYTGVPARFSGSGSGTDFTFTINNLQAEDVGDYFCQQDYSSPFTFGQGTKLEIK	0.48	
monoclonal anti-cIL-31RA antibody 28F12 (antibody, V domains shown) VH: EVQLVESDGGLAQPGRSLKLSCAASGFTFSDYYMAWVRQAPTKGLEWVATISYDGSSTYYRDSVRGRFTISRDNAKSTLYLQMDSLRSEDTATYYCARGPLTDWAPNWFAYWGQGTLVTVSS VL: DIQMTQSPASLSASLGETVTIQCQTSEDIYSGLAWYQQKPGKSPQFLIYGASRLEDGVPSRFSGSGSGTQYSLKISSMQTEDEGVYFCQQGLKYPNTFGAGTKLELK		IC50 (read off the curve); STAT3-SEAP reporter, canine IL-31 stimulation [2]: ~0.7 nM; IC50 ratio (IC50 candidate/IC50 VTQ2101) [3]: 5.6 ratio
scFv-Fc-VTQ2201 (scFv-VTQ2201-HLλcap-GS18-Mouse IgG2A-LALAPG-Fc) (Fc fusion) scFv: EVQLQQSGAELVKPGASVKLSCTASGFNIKDSFIHWLKQRPEQGLEWIGRIDPANGNTEYDPNFQGKVTITADTSSNTAYLQLSSLTSEDTAVYYCARYYYGNSHFDAWGQGTTLTVSSGSTSGGGSGGGSGGGGSSRIVMNQTPKFLPISAGDRVIITCKASQSVTNDVTWYQQKPGQSPKVLIHYASNRYTGVPDRFTGSGYGTDFTFTISTVQAEDLAVYFCQQDYSSPFTFGSGTKLTVLGPRGPTIKPCPPCKCPAPNAAGGPSVFIFPPKIKDVLMISLSPIVTCVVVDVSEDDPDVQISWFVNNVEVHTAQTQTHREDYNSTLRVVSALPIQHQDWMSGKEFKCKVNNKDLGAPIERTISKPKGSVRAPQVYVLPPPEEEMTKKQVTLTCMVTDFMPEDIYVEWTNNGKTELNYKNTEPVLDSDGSYFMYSKLRVEKKNWVERNSYSCSVVHEGLHNHHTTKSFSRTPGK		IC50 ratio (IC50 candidate/IC50 VTQ2101) [4]: 1 ratio; IC50 (read off the curve); STAT3-SEAP reporter, canine IL-31 stimulation [5]: ~1 nM
scFv-Fc-VTQ2202 (scFv-VTQ2202-HLλcap-GS18-MOUSE IgG2A-LALAPG-Fc) (Fc fusion) scFv: EVQLQQSGAELVKPGASVKLSCTASGFNIKSSFIHWLKQRPEQGLEWIGRIDPAFGATEYNPAFQGKVTITADTSSNTAYLQLSSLTSEDTAVYYCARYHYAASHFDAWGQGTTLTVSSGSTSGGGSGGGSGGGGSSRIVMNQTPKFLPISAGDRVIITCKSSQSVTNDLTWYQQKPGQSPKVLIHYASQRYTGVPDRFTGSGYGTDFTFTISTVQAEDLAVYFCQQDYASPFTFGSGTKLTVLGPRGPTIKPCPPCKCPAPNAAGGPSVFIFPPKIKDVLMISLSPIVTCVVVDVSEDDPDVQISWFVNNVEVHTAQTQTHREDYNSTLRVVSALPIQHQDWMSGKEFKCKVNNKDLGAPIERTISKPKGSVRAPQVYVLPPPEEEMTKKQVTLTCMVTDFMPEDIYVEWTNNGKTELNYKNTEPVLDSDGSYFMYSKLRVEKKNWVERNSYSCSVVHEGLHNHHTTKSFSRTPGK		IC50 (read off the curve); STAT3-SEAP reporter, canine IL-31 stimulation [6]: ~0.8 nM; IC50 ratio (IC50 candidate/IC50 VTQ2101) [4]: 1 ratio
scFv-VTQ2101-LH-Fc (scFv-VTQ2101-LH-GS18-Canine IgG2B-LALAPG-Fc) (Fc fusion) scFv: RIVMTQSPGSLAGSVGESVSINCKSSQSVTNDLTWYQQKPGEAPKVLITYASQRYTGVPARFSGSGYGTDFTLTINNLQAEDVGDYFCQQDYASPFTFGQGTKLEIKGSTSGGGSGGGSGGGGSSEVTLQESGPGLVKPSQTLSLTCVASGFSIKSSFIHWLRQRPGRGLEWIGRIDPAFGATEYNPAFQGRFSITADTAKNQASLQLSSMTTEDSAVYYCARYHYAASHFDAWGQGTLVTVSSPKRENGRVPRPPDCPKCPAPEAAGGPSVFIFPPKPKDTLLIARTPEVTCVVVDLDPEDPEVQISWFVDGKQMQTAKTQPREEQFNGTYRVVSVLPIGHQDWLKGKQFTCKVNNKALGSPIERTISKARGQAHQPSVYVLPPSREELSKNTVSLTCLIKDFFPPDIDVEWQSNGQQEPESKYRTTPPQLDEDGSYFLYSKLSVDKSRWQRGDTFICAVMHEALHNHYTQESLSHSPG		IC50 ratio (IC50 candidate/IC50 VTQ2101) [7]: 2.2 ratio; IC50 (read off the curve); STAT3-SEAP reporter, canine IL-31 stimulation [8]: 1 to 10 nM
8D3-clone7v2-VH/8D3-clone 7-VL caninized antibody (antibody, V domains shown) VH: EVTLQESGPGLVKPSQTLSLTCVASGFSIKSSFIHWLRQRPGRGLEWIGRIDPLQGGTEYNPVFQGRISITADTTKNQVSLQLSSMTTEDTAVYYCARYYYAQSHFDAWGQGTLVTVSS VL: RIVMTQSPGSLAGSAGESVSINCKSSQSVTNDLTWYQQKPGEAPKVLIHYASQRYTGVPARFSGSGYGTDFTLTINNLQAEDVGVYFCQQDYSSPFTFGQGTKLEIK	0.44	
